From patent US9187525B2, “Methods of treating ophthalmic diseases using NPR-B agonists” (Shire Orphan Therapies GmbH, dated 2015)
Numbered stars: 1 amine (or outer) side, 2 acyl side, 3 side chain; on linkers, the order of the positions; unused ones are H or OH. Bridge positions count the residues as written; N and C are the ends. Square brackets hold non-standard residues; d marks the D form. Primed or numbered codes have the meaning given here. Ends that are not written are not given here. * marks the point of attachment. 5118 = (1R,2S)-ethyl 2-aminocyclohexanecarboxylate, CCOC(=O)[C@@H]1CCCC[C@@H]1N*; 1860″ = (1R,2R)-2-methylcyclohexanamine, C[C@@H]1CCCC[C@H]1N*; 5164 = (S)-3-amino-1-ethylazepan-2-one, CCN1CCCC[C@H](N*)C1=O; Sni = (S)-nipecotic acid, O=C([C@H]1CCCN([*:1])C1)[*:2]; 5121 = 1-propyl-butyl-amine, CCCC(CCC)N*; Octanoyl = CCCCCCCC(=O)*; 5163 = not defined here; Che = not defined here; ala = not defined here; pro = not defined here; Occ = octanoic acid

B1: JAL-0834 (peptide)
peptide: Octanoyl-[ala][ala]FGLKLDR-5164
modifications: reading uncertain; also: printed as Occ-ala-ala-Phe-Gly-Leu-Lys-Leu-Asp-Arg-5164
B2: JAL-0841 (peptide)
peptide: Octanoyl-AFGLKLDR-5121
modifications: not fully specified (some residues); printed as Occ-ala-Phe-Gly-Leu-Lys-Leu-Asp-Arg-5121
B3: JAL-0840 (peptide)
peptide: Octanoyl-AFGLKLDR[Che]
modifications: not fully specified (some residues); printed as Occ-ala-Phe-Gly-Leu-Lys-Leu-Asp-Arg-Che; reading uncertain
B4: JAL-0831 (peptide)
peptide: Octanoyl-[ala][ala]FGLKLDR[5118]
modifications: reading uncertain; also: printed as Occ-ala-ala-Phe-Gly-Leu-Lys-Leu-Asp-Arg-5118
B5: JAL-0833 (peptide)
peptide: Octanoyl-[ala][ala]FGLKLDR[5163]
modifications: reading uncertain; also: printed as Occ-ala-ala-Phe-Gly-Leu-Lys-Leu-Asp-Arg-5163
B6: JAL-0839 (peptide)
peptide: Octanoyl-AFGLKLDR-{1860″}
modifications: not fully specified (some residues); printed as Occ-ala-Phe-Gly-Leu-Lys-Leu-Asp-Arg-1860

Columns and labels:
Assay in all cases: cell-based or functional assay
[1] = target: T1, natriuretic peptide receptor-B (human)
T1 chain: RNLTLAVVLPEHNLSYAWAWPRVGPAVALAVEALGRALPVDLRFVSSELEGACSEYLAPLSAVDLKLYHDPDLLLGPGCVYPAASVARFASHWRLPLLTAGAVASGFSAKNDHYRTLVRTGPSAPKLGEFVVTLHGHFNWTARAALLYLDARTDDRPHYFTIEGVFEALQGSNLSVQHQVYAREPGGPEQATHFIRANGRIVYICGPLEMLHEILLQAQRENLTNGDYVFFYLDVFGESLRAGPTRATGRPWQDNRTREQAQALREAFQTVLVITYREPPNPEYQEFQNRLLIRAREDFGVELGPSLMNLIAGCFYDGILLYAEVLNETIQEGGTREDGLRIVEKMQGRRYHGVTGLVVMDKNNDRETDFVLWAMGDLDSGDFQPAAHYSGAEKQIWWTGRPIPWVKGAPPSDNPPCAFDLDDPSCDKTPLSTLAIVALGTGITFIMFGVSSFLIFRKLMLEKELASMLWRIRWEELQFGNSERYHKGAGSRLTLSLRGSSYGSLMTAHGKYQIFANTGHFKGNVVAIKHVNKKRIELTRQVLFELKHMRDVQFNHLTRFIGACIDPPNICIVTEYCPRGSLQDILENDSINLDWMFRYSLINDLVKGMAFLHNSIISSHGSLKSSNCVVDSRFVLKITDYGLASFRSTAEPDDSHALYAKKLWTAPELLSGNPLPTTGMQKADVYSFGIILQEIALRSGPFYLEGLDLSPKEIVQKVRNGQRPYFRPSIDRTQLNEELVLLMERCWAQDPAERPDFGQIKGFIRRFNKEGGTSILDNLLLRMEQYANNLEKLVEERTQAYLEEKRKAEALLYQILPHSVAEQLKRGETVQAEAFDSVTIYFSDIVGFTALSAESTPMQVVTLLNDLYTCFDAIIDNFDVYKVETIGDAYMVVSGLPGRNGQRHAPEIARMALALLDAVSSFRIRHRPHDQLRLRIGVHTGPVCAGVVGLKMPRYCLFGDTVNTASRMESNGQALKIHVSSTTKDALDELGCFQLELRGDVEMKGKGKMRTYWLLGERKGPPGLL

[2] = target: T1, natriuretic peptide receptor-B
[3] = target: T2, natriuretic peptide receptor-A (Homo sapiens)
T2 chain: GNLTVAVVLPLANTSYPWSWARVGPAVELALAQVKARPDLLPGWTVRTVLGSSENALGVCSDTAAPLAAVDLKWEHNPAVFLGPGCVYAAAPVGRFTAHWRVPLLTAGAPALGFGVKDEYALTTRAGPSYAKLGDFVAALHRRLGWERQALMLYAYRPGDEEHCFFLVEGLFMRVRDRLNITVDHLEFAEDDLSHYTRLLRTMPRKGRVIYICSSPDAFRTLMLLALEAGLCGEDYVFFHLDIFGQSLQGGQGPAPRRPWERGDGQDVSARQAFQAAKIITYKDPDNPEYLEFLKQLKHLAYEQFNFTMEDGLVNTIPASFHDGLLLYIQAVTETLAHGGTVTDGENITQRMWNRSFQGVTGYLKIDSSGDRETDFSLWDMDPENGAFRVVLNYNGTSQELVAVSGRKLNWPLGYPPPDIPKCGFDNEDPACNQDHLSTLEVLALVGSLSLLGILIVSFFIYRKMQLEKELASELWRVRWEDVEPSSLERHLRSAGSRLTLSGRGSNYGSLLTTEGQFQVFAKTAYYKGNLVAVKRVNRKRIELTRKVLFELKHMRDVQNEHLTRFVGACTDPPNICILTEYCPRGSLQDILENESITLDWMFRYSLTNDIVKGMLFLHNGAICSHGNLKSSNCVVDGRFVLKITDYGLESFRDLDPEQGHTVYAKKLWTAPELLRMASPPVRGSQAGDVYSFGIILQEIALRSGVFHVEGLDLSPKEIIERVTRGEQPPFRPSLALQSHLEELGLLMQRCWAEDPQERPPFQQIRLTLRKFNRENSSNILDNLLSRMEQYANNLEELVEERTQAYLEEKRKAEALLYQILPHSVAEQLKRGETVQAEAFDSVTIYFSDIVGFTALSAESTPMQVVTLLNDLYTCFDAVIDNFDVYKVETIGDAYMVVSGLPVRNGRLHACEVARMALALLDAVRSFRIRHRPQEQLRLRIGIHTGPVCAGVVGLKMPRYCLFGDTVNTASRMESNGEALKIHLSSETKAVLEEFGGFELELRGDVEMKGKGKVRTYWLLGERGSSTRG

Row | Binder | EC50 group, cGMP in GTM-3 cells [1] | EC50, cyclic GMP production in GTM-3 cells [2] | Emax, cyclic GMP production in GTM-3 cells [2] | EC50, cyclic GMP production in NPR-A transfected 293-T cells [3]
1 | B1 | ≤ 15 µM |  |  | 
2 | B2 | ≤ 15 µM |  |  | 
3 | SLRRSSCFGGRMDRIGAQSGLGCNSFRY (ligand, disulfide 7-23 (inferred)) [atrial natriuretic peptide] |  | 1.63 µM | 15% | 
4 | B3 | ≤ 15 µM |  |  | 
5 | B4 | ≤ 15 µM |  |  | 
6 | [Occ][Sni]FGLPLDRI-NH2 [JAL-0837] | ≤ 15 µM |  |  | 
7 | B5 | ≤ 15 µM |  |  | 
8 | Octanoyl-[ala]FGLPLDRI-NH2 (reading uncertain; also: printed as Occ-ala-Phe-Gly-Leu-Pro-Leu-Asp-Arg-Ile-NH2) [JAL-0835] | ≤ 15 µM |  |  | 
9 | MCHFGGRMDRISCYR [mini-ANP] |  | > 45 µM | 0% | 1.54 µM
10 | B6 | ≤ 5 µM |  |  | 
11 | Octanoyl-[pro]FGLPLDRI-NH2 (reading uncertain; also: printed as Occ-pro-Phe-Gly-Leu-Pro-Leu-Asp-Arg-Ile-NH2) [JAL-0836] | ≤ 15 µM |  |  | 
12 | GLSKGCFGLKLDRIGSMSGLGC (ligand, disulfide 6-22 (inferred)) [C-type natriuretic peptide] |  | 0.0388 µM | 100% | 1.6 µM
